In US20210277119A1 (MARENGO THERAPEUTICS, published 2021):
Changes are numbered by the printed parent chain.

T1: recombinant protein TCRVB 6-5 (human, UniProt A0A0K0K1A5 22-114, limits assumed, captured on a Biotin CAP sensor chip (biotinylated; site not stated))
T1 construct: also called TCRVβ 6-5; TCRβ V6-5*01
T1 sequence (TCR beta): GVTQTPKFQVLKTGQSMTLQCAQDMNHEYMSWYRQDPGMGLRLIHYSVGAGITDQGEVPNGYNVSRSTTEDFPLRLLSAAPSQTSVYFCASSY

B1: A-H.52 (scFv)
scFv: QVQLVQSGAEVKKPGSSVKVSCKASGYSFTLGYIHWVRQAPGQGLEWMGWFFPGSGNIKYNEKFKGRVTITADTSTSTAYMELSSLRSEDTAVYYCAGSYYSYDVLDYWGQGTTVTVSSGGGGSGGGGSGGGGSGGGGSDIQMTQSPSFLSASVGDRVTITCKASQNVGINVVWHQQKPGKAPKALIYSSSHRYSGVPSRFSGSGSGTEFTLTISSLQPEDFATYFCQQFKSYPLTFGQGTKLEIK
notes: Said to be a phage clone and a monovalent scFv; also called phage clone; monovalent scFv
B2: A-H.54 (scFv)
scFv: B1 scFv with T30H, L31N, G32W
notes: Called a phage clone; also called phage clone
B3: A-H.53 (scFv)
scFv: B1 scFv with T30R, G32T
notes: as for B2

Legend:
[1] = biological target: T1, recombinant protein TCRVB 6-5; assay: SPR, TCRVB 6-5 on Biotin CAP chip, compared with BJM0277
Protocol: (§1) TCRVB 6-5 at 5 ug/mL was immobilized on a Biotin CAP Series S Sensor Chip to 60 RU. A-H.52 was diluted to 50 nM and then serially diluted two fold. Association was 120 seconds, dissociation was 300 seconds. This assay was run in 1×HBS-EP+ Buffer pH 7.4 and 25 C. The data was fit using a 1:1 binding model. A-H.52 is a phage clones and is a monovalent scFv. A-H.52 has two mutations on CDRH1.
(§2) TCRVB 6-5 at 5 ug/mL was immobilized on a Biotin CAP Series S Sensor Chip to 60 RU. A-H.53 was diluted to 50 nM and then serially diluted two fold. Association was 120 seconds, dissociation was 300 seconds. This assay was run in 1×HBS-EP+ Buffer pH 7.4 and 25 C. The data was fit using a 1:1 binding model. A-H.53 (phage clone) affinity is in the pM range (Table 16).
as §1, with “A-H.54” for “A-H.52”, “model.” for “model. A-H.52 is a phage clones and is a monovalent scFv. A-H.52 has two mutations on CDRH1.”

[2] = biological target: T1, recombinant protein TCRVB 6-5; assay: SPR, TCRVB 6-5 captured on Biotin CAP chip, analyte from 50 nM in two-fold dilutions, 1:1 model, 25 C
Protocol: as §1, §2
as §1, with “A-H.54” for “A-H.52”, “model.” for “model. A-H.52 is a phage clones and is a monovalent scFv. A-H.52 has two mutations on CDRH1.”

Row | Binder | fold greater affinity than BJM0277 [1] [fold] | Kd [2] [nM]
1 | B1 | 20 | 1.76
2 | B2 | 17 | 2.22
3 | B3 | 200 | 0.165
